The values below come from article PMC8446801, “Coiled-coil binding of the leucine zipper domains of APOL1 is necessary for the open cation channel conformation” (The Journal of Biological Chemistry, 2021).

Data set [1] concerns the target APOL1 G0 (human) (UniProt O14791).
Data set [2] concerns the molecule itself. The data set can be described thus: cross-linking; untreated control protein (lane c): thawed on ice from -80 °C and immediately diluted into SDS sample buffer; nonreducing SDS-PAGE, silver stain.
Data set [3] concerns the molecule itself. The data set can be described thus: cross-linking; disulfide trapping between substituted cysteines, no membranes; protein (~0.159 uM) in 0.2 ml buffer (5 mM succinate, 5 mM Hepes, 0.5 mM KCl, 5 mM CaCl2), room temperature, 1 h at pH 5.6 followed by 1 h at pH 7.2; nonreducing SDS-PAGE, silver stain.
The target of data set [4] is APOL1 LZA 1 (human) (UniProt O14791).

Substitutions are numbered along the chain they refer to. Names and notes keep the numbering of the source.

B1: APOL1 G0 (natural protein)
chain: EEAGARVQQNVPSGTDTGDPQSKPLGDWAAGTMDPESSIFIEDAIKYFKEKVSTQNLLLLLTDNEAWNGFVAAAELPRNEADELRKALDNLARQMIMKDKNWHDKGQQYRNWFLKEFPRLKSKLEDNIRRLRALADGVQKVHKGTTIANVVSGSLSISSGILTLVGMGLAPFTEGGSLVLLEPGMELGITAALTGITSSTIDYGKKWWTQAQAHDLVIKSLDKLKEVKEFLGENISNFLSLAGNTYQLTRGIGKDIRALRRARANLQSVPHASASRPRVTEPISAESGEQVERVNEPSILEMSRGVKLTDVAPVSFFLVLDVVYLVYESKHLHEGAKSETAEELKKVAQELEEKLNILNNNYKILQADQEL
B1 gave a trypanosome lysis (T. b. brucei, 24 h), IC50 in data set [1] of 125 ng/mL.

B2: APOL1 LZA A375C (natural protein, human, UniProt O14791 28-398, looked up)
chain: B1 chain with L344A, A348C, L351A, L358A, L365A
notes: Apolipoprotein L-I (APOL1) G0, human, aa 28-398, isoform K150, I228, K255 (GenBank AAI12944.2), every d position leucine of the ZIP domain to alanine plus A375C; Disulfide dimers were already present in the starting material (formed during purification); source: E. coli BL21-DE3-RIPL, purified (nickel-chelate chromatography, SEC); not shown: His6, N-terminal, kept
One may read the stoichiometry N as the number of molecules, sites or subunits per partner or assembly. B2: the “stoichiometry N” value in data set [2] came out at 2.

B3: APOL1 A375C (natural protein, human, UniProt O14791 28-398, looked up)
chain: B1 chain with A348C
notes: Apolipoprotein L-I (APOL1) G0, human, aa 28-398 (without the signal peptide), most common isoform K150, I228, K255 (GenBank AAI12944.2); Cysteine at the a position of the C-terminal leucine zipper (ZIP) domain; APOL1 has no endogenous cysteines; Stored with 1 mM DTT in the SEC buffer; also called apolipoprotein L-I A375C; source: E. coli BL21-DE3-RIPL, purified (nickel-chelate chromatography, …)
For B3, the “stoichiometry N” value in data set [3] came out at 2.

B4: APOL1 LZA 1 (natural protein)
chain: B1 chain with L344A
For B4, in data set [4], the trypanosome lysis (T. b. brucei, 24 h), IC50 was 600 ng/mL.

B5: APOL1 A363C (natural protein, human, UniProt O14791 28-398, looked up)
chain: B1 chain with A336C
notes: Apolipoprotein L-I (APOL1) G0, human, aa 28-398, isoform K150, I228, K255 (GenBank AAI12944.2); Cysteine in the predicted turn region between the pore-lining region and the ZIP domain, outside the ZIP domain; source: E. coli BL21-DE3-RIPL, purified (nickel-chelate chromatography, SEC); not shown: His6, N-terminal, kept
As to B5, the binding result in data set [3] was “binds”.
